According to US20230295324A1 (published 2023):
Read-outs that look alike come from different tables or passages of the source.

Key:
[1] = target: T1, human OX40 on cells (CHO-K1/hu OX40) (human, UniProt P43489 29-277); assay: cell-based or functional assay
T1 sequence (looked up): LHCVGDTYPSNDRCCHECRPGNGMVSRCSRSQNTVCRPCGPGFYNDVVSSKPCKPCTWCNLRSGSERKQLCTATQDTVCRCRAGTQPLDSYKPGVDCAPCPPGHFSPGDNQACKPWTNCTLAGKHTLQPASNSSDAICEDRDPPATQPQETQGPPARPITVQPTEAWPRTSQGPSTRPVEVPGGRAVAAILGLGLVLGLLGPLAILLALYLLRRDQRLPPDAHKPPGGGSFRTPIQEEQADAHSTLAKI

[2] = target: T1, human OX40 on cells (CHO-K1/hu OX40); assay: cell-based or functional assay; remark: listed apart in the source
[3] = target: T1, human OX40 on cells (CHO-K1/hu OX40); assay: FACS, CHO-K1/hu OX40 cells
Procedure: This example is intended to investigate the in vitro binding activity of anti-human OX40 HCAb monoclonal antibodies to human OX40. The antibody binding assay at the cellular level was performed using a stable CHO-K1 cell strain overexpressing human OX40 (CHO-K1/hu OX40). Briefly, the CHO-K1/hu OX40 cells were digested, resuspended in an F12K complete medium and washed once with PBS. The cell density was adjusted to 1×10⁶ cells/mL with PBS. The cells were seeded in a 96-well V-bottom plate (Corning, #3894) at 100 μL/well, and centrifuged, and then the supernatant was discarded. Then, the test antibodies diluted in a 3-fold gradient at concentrations that were 2 times the final concentrations were added at 100 μL/well. The cells were incubated at 4° C. for 1 h away from light. Thereafter, the cells in each well were rinsed twice with 100 μL of pre-cooled PBS, and centrifuged at 500 g at 4° C. for 5 min, and then the supernatant was discarded. […] The plate was incubated away from light at 4° C. for 30 min. The cells in each well were rinsed twice with 100 μL of pre-cooled PBS, and centrifuged at 500 g at 4° C. for 5 min, and then the supernatant was discarded. Finally, the cells in each well were resuspended in 200 μL of pre-cooled PBS, and the fluorescence signal values were read using a BD FACS CANTOII.

[4] = target: T2, cynomolgus monkey OX40 protein (Novoprotein, #CB17) (cynomolgus monkey); assay: ELISA, coated cyno OX40 protein
T2 construct: Bought recombinant protein; also called cyno OX40
Procedure: (§1) This example is intended to investigate the in vitro binding activity of the anti-OX40 HCAb monoclonal antibodies prepared in Example 1 to human and cynomolgus monkey OX40 proteins. The antibody binding assay at the protein level was performed using a human OX40 protein (Acro biosystem, #OX0-H5224) and a cynomolgus monkey OX40 protein (Novoprotein, #CB17). Briefly, a 384-well plate (PerkinElmer, #6007509) was coated with 1 μg/mL human OX40 protein and a cynomolgus monkey OX40 protein dissolved in PBS at 20 μL/well, and incubated at 4° C. overnight. The next day, the 384-well plate was washed three times with PBS containing 0.05% Tween (MEDICAGO, #09-9410-100), and blocked with PBS containing 2% milk (Bio-Rad, #170-6404) at 37° C. for 1 h. […] The plate was added with a stop buffer (BBI life sciences, #E661006-0200) at 20 μL/well, and read for OD₄₅₀₋₆₅₀ values using a plate reader (Molecular Devices, model: SpectraMax Plus). The values were analyzed with Graphad 8.0 and plotted.

[5] = target: T3, human OX40 protein (Acro biosystem, #OX0-H5224) (human, UniProt P43489 29-216); assay: ELISA, coated human OX40 protein
T3 construct: Bought recombinant protein
T3 sequence (looked up): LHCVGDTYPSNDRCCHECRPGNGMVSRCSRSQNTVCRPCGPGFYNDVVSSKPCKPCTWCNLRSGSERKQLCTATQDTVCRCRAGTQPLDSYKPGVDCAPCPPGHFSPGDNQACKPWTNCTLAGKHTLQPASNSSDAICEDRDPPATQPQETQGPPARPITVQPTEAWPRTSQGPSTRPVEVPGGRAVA
Procedure: as §1

[6] = target: T3, human OX40 protein (Acro biosystem, …); assay: BLI, antibody on ProA sensor, 1:1 global fit
Procedure: (§2) The binding kinetics between the antigen and the antibody was analyzed by the Biolayer Interferometry (BLI) technique using an Octet Red 96e molecular interaction analyzer (Fortebio).
(§3) The association and dissociation signals between the OX40 antibodies and OX40 proteins were recorded by Octet Red 96 in real time. When data analysis was performed using Octet Data Analysis software (Fortebio, version 11.0), 0 nM was used as a reference hole, and reference subtraction was performed; the “1:1 Global fitting” method was selected to fit the data, and the kinetics parameters of the binding of antigens to antigen-binding proteins were calculated, with kon(1/Ms) values, kdis(1/s) values and KD(M) values obtained.

[7] = target: T2, cynomolgus monkey OX40 protein …; assay: BLI, antibody on ProA sensor, 1:1 global fit
Procedure: as §2, §3

[8] = target: T1, human OX40 on cells (CHO-K1/hu OX40); assay: FACS, blocking of biotin-human OX40L on CHO-K1/hu OX40 cells
Procedure: Briefly, the CHO-K1/hu OX40 cells were digested and resuspended in an F-12K complete medium, and the cell density was adjusted to 1×10⁶ cells/mL. The cells were seeded in a 96-well V-bottom plate (Corning, #3894) at 100 μL/well, and centrifuged, and then the supernatant was discarded. The test antigen-binding proteins diluted in a 3-fold gradient at concentrations that were 2 times the final concentrations were added at 100 μL/well, and the mixture was well mixed, wherein the antigen-binding protein had the highest final concentration of 100 nM, and a total of 8 concentrations were obtained. […] The cells were incubated at 4° C. for 1 h away from light. Thereafter, the cells were centrifuged at 4° C. for 5 min, and then the supernatant was discarded. […] The cells in each well were rinsed twice with 100 μL of pre-cooled PBS, and centrifuged at 500 g at 4° C. for 5 min, and then the supernatant was discarded. A 1:200 fluorescent secondary antibody PE Streptavidin (BD Biosciences, #554061) was added at 100 μL/well, and the cells were incubated away from light at 4° C. for 30 min. The cells in each well were rinsed twice with 200 μL of pre-cooled PBS, and centrifuged at 500 g at 4° C. for 5 min, and then the supernatant was discarded. Finally, the cells in each well were resuspended in 200 μL of precooled PBS. Fluorescence signal values were read using BD FACS CANTOII, and IC50 was calculated. Inhibition rate %={average MFI of non-blocking control well−MFI value of OX40 antibody}/{(average MFI of non-blocking control well)−average MFI of 100% blocking control well)}×100%.

[9] = target: T1, human OX40 on cells (CHO-K1/hu OX40); assay: FACS, CHO-K1/hu OX40 cells; remark: listed apart in the source
Procedure: This example is intended to investigate the in vitro binding activity of OX40×TAA bispecific antibodies obtained in Example 9 to human OX40. The antibody binding assay at the cellular level was performed using a CHO-K1 cell strain overexpressing human OX40 (CHO-K1/hu OX40). Briefly, CHO-K1/hu OX40 cells were digested, resuspended in an F12K complete medium, and washed with PBS, and the cell density was adjusted to 1×10⁶ cells/ml with PBS. The cells were seeded in a 96-well V-bottom plate (Corning, #3894) at 100 μL/well, followed by the addition of test antibodies diluted in a 3-fold gradient at concentrations that were 2 times the final concentrations at 100 μL/well. The cells were incubated at 4° C. for 1 h away from light. Thereafter, the cells in each well were rinsed twice with 100 μL of pre-cooled PBS, and centrifuged at 500 g at 4° C. for 5 min, and then the supernatant was discarded. […] The plate was incubated away from light at 4° C. for 30 min. The cells in each well were rinsed twice with 100 μL of pre-cooled PBS, and centrifuged at 500 g at 4° C. for 5 min, and then the supernatant was discarded. Finally, the cells in each well were resuspended in 200 μL of pre-cooled PBS, and the fluorescence signal values were read using NovoCyte flow cytometer (ACEA Biosciences).

[10] = target: T4, human PSMA on LNCAP cells (human, UniProt Q04609 1-750); assay: FACS, LNCAP cells (human PSMA)
T4 construct: whole, on cells
T4 sequence (Q04609 whole entry): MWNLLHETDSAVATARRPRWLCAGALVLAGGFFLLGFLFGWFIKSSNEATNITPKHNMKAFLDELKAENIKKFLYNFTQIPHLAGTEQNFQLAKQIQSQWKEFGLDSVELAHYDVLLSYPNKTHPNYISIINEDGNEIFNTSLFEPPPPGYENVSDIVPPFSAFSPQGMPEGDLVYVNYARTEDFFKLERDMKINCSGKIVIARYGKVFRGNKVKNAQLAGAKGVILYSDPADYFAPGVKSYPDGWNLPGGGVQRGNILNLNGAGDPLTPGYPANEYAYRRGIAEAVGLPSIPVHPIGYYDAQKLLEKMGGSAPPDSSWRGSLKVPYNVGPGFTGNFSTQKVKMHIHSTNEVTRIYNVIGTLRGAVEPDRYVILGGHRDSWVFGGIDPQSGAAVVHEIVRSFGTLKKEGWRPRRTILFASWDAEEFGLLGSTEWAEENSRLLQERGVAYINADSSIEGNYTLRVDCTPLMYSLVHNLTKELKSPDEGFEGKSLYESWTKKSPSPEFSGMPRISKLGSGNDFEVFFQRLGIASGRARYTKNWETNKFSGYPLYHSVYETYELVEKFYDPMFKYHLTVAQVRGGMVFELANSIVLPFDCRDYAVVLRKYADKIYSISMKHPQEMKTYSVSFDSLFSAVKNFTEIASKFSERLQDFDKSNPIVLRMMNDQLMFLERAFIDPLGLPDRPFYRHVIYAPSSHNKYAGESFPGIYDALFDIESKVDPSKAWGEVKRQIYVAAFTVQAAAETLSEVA
Procedure: This example is intended to investigate the in vitro binding activity of OX40×TAA bispecific antibodies obtained in Example 9 to tumor-associated antigens (TAAs). […] Briefly, those cells were digested, resuspended in a complete medium, and washed with PBS, and the cell density was adjusted to 1×10⁶ cells/ml with PBS. The cells were seeded in a 96-well V-bottom plate (Corning, #3894) at 100 μL/well, and centrifuged, and then the supernatant was discarded. Then, the test antibodies diluted in a 3-fold gradient were added at 100 μL/well. The cells were incubated at 4° C. for 1 h away from light. Thereafter, the cells in each well were rinsed twice with 100 μL of pre-cooled PBS, and centrifuged at 500 g at 4° C. for 5 min, and then the supernatant was discarded. […] The plate was incubated away from light at 4° C. for 30 min. The cells in each well were rinsed twice with 100 μL of pre-cooled PBS, and centrifuged at 500 g at 4° C. for 5 min, and then the supernatant was discarded. Finally, the cells in each well were resuspended in 200 μL of pre-cooled PBS, and the fluorescence signal values were read using NovoCyte flow cytometer (ACEA Biosciences).

B1: PR002066 (antibody, human IgG1, V domains shown)
VH: EVQLLESGGGLVQPGGSLRLSCIASGFTFSSYAMSWVRQAPGKGLEWVSAISGRGGSTFYADSVRGRFTISRDNSKNTLYLQMNSLRAEDTAVYYCANGMTGTTDVDYWGQGTQVTVSS
notes: no light chain; also called anti-OX40 HCAb antibody
EC50, HEK293/OX40/NF-kb luciferase reporter [1]: 5.45 nM | Maximum fluorescence signal value, HEK293/OX40/NF-kb luciferase reporter [1]: 147000 luminescence | EC50, IFN-γ release by human T cells with OKT3 and CHO-K1-CD32b cells [2]: 0.031 nM | Maximum IFN-γ release value [2]: 1870 | EC50 [3]: 4.67 nM | Maximum MFI [3]: 3010 MFI | EC50 [4]: 0.37 nM | Maximum OD [4]: 2.44 OD | EC50 [5]: 0.118 nM | Maximum OD [5]: 2.47 OD | Kd [6]: 8.71 nM | koff [6]: 0.000387 s⁻¹ | kon [6]: 44400 M⁻¹ s⁻¹ | Kd [7]: 22.7 nM | koff [7]: 0.00097 s⁻¹ | kon [7]: 42700 M⁻¹ s⁻¹ | IC50 [8]: 67.6 nM | Maximum inhibition rate (%) [8]: 58%

B2: PR002077 (antibody, human IgG1, V domains shown)
VH: EVQLLESGGGLVQPGGSLRLSCAASGFTFSSYAMSWVRQAPGKGLEWVSAISGRGNITFYADSVRGRFTISRDNSKNTLYLQMNSLRAEDTAVYYCANGITGTTDVDYWGQGTLVTVSS
notes: as for B1
EC50, HEK293/OX40/NF-kb luciferase reporter [1]: 3.51 nM | Maximum fluorescence signal value, HEK293/OX40/NF-kb luciferase reporter [1]: 113000 luminescence | EC50 [3]: 7.22 nM | Maximum MFI [3]: 3980 MFI | EC50 [4]: 0.441 nM | Maximum OD [4]: 2.73 OD | EC50 [5]: 0.146 nM | Maximum OD [5]: 2.67 OD | Kd [6]: 10.6 nM | koff [6]: 0.000364 s⁻¹ | kon [6]: 34300 M⁻¹ s⁻¹ | Kd [7]: 22.1 nM | koff [7]: 0.000722 s⁻¹ | kon [7]: 32700 M⁻¹ s⁻¹ | IC50 [8]: 41.1 nM | Maximum inhibition rate (%) [8]: 34%

B3: PR004284 (bispecific antibody, human IgG1, kappa, L234A L235A)
light: DIQMTQSPSSLSASIGDRVTITCRASQSINSYLNWYQQKPGKAPKLLIYTASSLLSGVPSRFSASGSWTDFSLTISSLQPEDFATYYCQQSFSTPYTFGQGTNLEIKRTVAAPSVFIFPPSDEQLKSGTASVVCLLNNFYPREAKVQWKVDNALQSGNSQESVTEQDSKDSTYSLSSTLTLSKADYEKHKVYACEVTHQGLSSPVTKSFNRGEC
heavy: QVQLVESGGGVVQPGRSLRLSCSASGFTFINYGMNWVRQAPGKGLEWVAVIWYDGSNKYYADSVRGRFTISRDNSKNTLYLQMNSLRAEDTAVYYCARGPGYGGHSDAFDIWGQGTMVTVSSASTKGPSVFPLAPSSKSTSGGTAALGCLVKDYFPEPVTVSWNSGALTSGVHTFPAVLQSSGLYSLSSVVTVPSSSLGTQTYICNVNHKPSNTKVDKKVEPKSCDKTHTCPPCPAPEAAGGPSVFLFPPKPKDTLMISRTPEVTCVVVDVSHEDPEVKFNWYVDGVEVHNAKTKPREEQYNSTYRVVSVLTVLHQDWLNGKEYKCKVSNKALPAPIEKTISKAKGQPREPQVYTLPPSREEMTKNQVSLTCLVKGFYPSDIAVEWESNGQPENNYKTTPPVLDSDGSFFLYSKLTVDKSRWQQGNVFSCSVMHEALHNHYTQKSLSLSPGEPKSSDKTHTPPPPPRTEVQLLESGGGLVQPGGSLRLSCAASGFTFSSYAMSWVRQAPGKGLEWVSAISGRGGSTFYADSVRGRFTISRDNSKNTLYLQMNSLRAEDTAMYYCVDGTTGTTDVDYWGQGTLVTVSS
notes: IgG-VH tetravalent symmetric structure: PR001331 IgG (anti-PSMA) with the VH of PR002067 via linker H1_15-RT; human IgG1 Fc (L234A, L235A); also called PSMAxOX40 bispecific antibody
EC50 [9]: 4.96 nM | Maximum MFI [9]: 287000 MFI | EC50 [10]: 6.7 nM

B4: PR001331 (antibody, human IgG1, kappa, V domains shown)
VH: QVQLVESGGGVVQPGRSLRLSCSASGFTFINYGMNWVRQAPGKGLEWVAVIWYDGSNKYYADSVRGRFTISRDNSKNTLYLQMNSLRAEDTAVYYCARGPGYGGHSDAFDIWGQGTMVTVSS
VL: DIQMTQSPSSLSASIGDRVTITCRASQSINSYLNWYQQKPGKAPKLLIYTASSLLSGVPSRFSASGSWTDFSLTISSLQPEDFATYYCQQSFSTPYTFGQGTNLEIKR
notes: H2L2 parental antibody against PSMA; also called anti-PSMA H2L2 antibody
EC50 [10]: 2.58 nM

B5: PR000327 (antibody, V domains shown)
VH: QVQLVESGGGLVKPGESLRLSCAASGFTFSDYYMYWVRQAPGKGLEWVAIISDGGYYTYYSDIIKGRFTISRDNAKNSLYLQMNSLKAEDTAVYYCARGFPLLRHGAMDYWGQGTLVTVSS
VL: DIQMTQSPSSLSASVGDRVTITCKASQNVDTNVAWYQQKPGQAPKSLIYSASYRYSDVPSRFSGSASGTDFTLTISSVQSEDFATYYCQQYDSYPYTFGGGTKLEIK
EC50 [10]: 3.02 nM
